Laboratory results reported in the DeepSol protein solubility set.

assay: soluble on expression in E. coli; label from the status in PepcDB or PDB records

| Sequence | soluble on expression in E. coli |
| --- | --- |
| MKRPNFLFVMTDTQATNMVGCYSGKPLNTQNIDSLAAEGIRFNSAYTCSPVCTPARAGLFTGIYANQSGPWTNNVAPGKNISTMGRYFKDAGYHTCYIGKWHLDGHDYFGTGECPPEWDADYWFDGANYLSELTEKEISLWRNGLNSVEDLQANHIDETFTWAHRISNRAVDFLQQPARADEPFLMVVSYDEPHHPFTCPVEYLEKYADFYYELGEKAQDDLANKPEHHRLWAQAMPSPVGDDGLYHHPLYFACNDFVDDQIGRVINALTPEQRENTWVIYTSDHGEMMGAHKLISKGAAMYDDITRIPLIIRSPQGERRQVDTPVSHIDLLPTMMALADIEKPEILPGENILAVKEPRGVMVEFNRYEIEHDSFGGFIPVRCWVTDDFKLVLNLFTSDELYDRRNDPNEMHNLIDDIRFADVRSKMHDALLDYMDKIRDPFRSYQWSLRPWRKDARPRWMGAFRPRPQDGYSPVVRDYDTGLPTQGVKVEEKKQKF | soluble |
| MKRVAAVIEYDGSNFFGYQGQPDVRTVQGVIEDALERIFKQRIYTQAAGRTDTGVHANGQLIAFNCPNDRMTTEDIRNAMNANLPDDVYVKEVFEVPVNFHPRFDVTKRIYHYFILTSRQKNVFLRKYVWWFPYELDLDAMRKAVKYLEGTHDFTSFKTGSDERDPVRTIYRIRILRLKNDLVLIRVEGRSFLRRMVRNIVAALVKVGLKQWEPEKMKEVLEARDRSAAAGTAPAHGLYFYKVLF | soluble |
| MKRVLIFADIFPPAFAPRAAYLTKYLPRFGWEPFVITEKMPTPASQSHGDVFGGFCSDIPVTAIDLSSASFLSQAIRSARLFGELFWEQKEERFYKEAAKAFPSVKFDAVLCLTYRKFPLATACRYAQAHRLPWVADCRDVIEQYSNYDFLPRGKRLPSLLMKWLRHRYISLRNHYLHKADRVVSVSPWHCNLLAEVNPRTELIYNGYDPELFSRGSLPCGKFILSYTGRLLTPEMHDPTLLFEALASEALQEVRKERRIELHWYVDEYSRSILQPFIRQYALKDMCRFFPMVPAVQVPEILRHSSVLLQLGNTEKPGGPHGIVSTKLFESLAMEKPILMVRSDEAIVADIISEAEAGLAAQTTEEVATFLSDQYTRWKAEGDTSLRNPNRNFISTFSREEEAKQYARLLESIVAN | not soluble |
| MKRYTPDFPEMMRLCEMNFSQLRRLLPRNDAPGETVSYQVANAQYRLTIVESTRYTTLVTIEQTAPAISYWSLPSMTVRLYHDAMVAEVCSSQQIFRFKARYDYPNKKLHQRDEKHQINQFLADWLRYCLAHGAMAIPVYLEHHHHHH | soluble |
| MKSACSIITASIVLYKSKPDIIRDVITSFFSDTVTKKKLILIDNSPTDSLRVLQEERPEDIQYFFNNRNIGFGSAHNIGIREAARFNPSYHLILNPDVQFGPEVVPTLASYMDENPDIGLLMPQVYYPNGELQHLCKLFPRPWDVMLRRFVPYRSYRERNNERFELRNWSYDTIQDIPSLSGCFMFARMDILREVGGFDERFFMYAEDLDLCRRIGQVSRTVFFPKVSIMHTYAKGSYHDAKLLRHHIVSLIRYFNKWGWLFDAERRRVNRACLAVLRNQTTVKKD | not soluble |
| MKSCRSCKENPEVQRKRAEKPWRRAPKAKSEVEKHGIGPPDSDSGEEISFPWYNVTGKMLVVGMHVEIKRSDGRIHGAVIAEVKSNGRFMVEWYEKGETKGKESSLEELLTLNPSLQAPKPTPPPQPPQKTLQASTAVNRQNGIHAQSMILDDEDTFLLDHINMIPAKGASANKRPTGAFTQHVPVRMAPPSEKPLPTRRAPSPKEDAAPAPKSTRTTAAFKPDLDSTAITVPKHTARRTVVVAPAPAPVPAPPIANMTSQRAPSPVARVPSPKNVPRSYPQQDVQPSNGNFAFAEMIRNYRAQIDYRPLSMFDGVNENRISVCVRKRPLNKKELTKAEVDVITIPSRDITILHQPQTRVDLTKYLDNQKFRFDYSFDEYANNELVYRFTAAPLVKTVFDNGTATCFAYGQTGSGKTHTMGGDFSGKKQNASMGIYALTARDVFRMLEQPQYRRKDLSVHCAFFEIYGTKTYDLLNDKAELRVLEDKMQKVQVVGLKEEQAHNEQDVLELINKGTLVRTAGTTSANANSSRSHAIFQIILRQGKKVWGKFSLIDLAGNERGQDTRECDRDTRKEGANINTSLLALKECIRGMARNSSHVPFRQSKLTMVLRDSFIGEKSRTVMISMISPGISSSDHTLNTLRYADRVKEMGTDGSGEATPIRDEELFLPPSADKSDEEYDEMVEKQEHRRVAVDHVRNLKDMSEKIIRETTIVLSNEPSAAQKAECLAKLDQLAQIVSNTRVAVENV | soluble |
| MKSEKETIYDYAAELKLLSFKEELECTLSLAAEENWNHLQFLTELLGKESARRRECRRRSRIRSAGFPQMKYLHELVMEDMPKEAQVILPELETLDFIRQGRNLVLYGNPGTGKTHIATALGIKACQQDFTVLFTSVPVLLTQIREAKSAKTLRTLQLRFEKYDLVICDEFGYVSCDKEGGELLFNHLSLRAGKKATIITTNLAFNRWNEIIKDKVLVAAMVDRLTHKAYLVNMTGLSYRLKETQKMRQDKLEHHHHHH | not soluble |
| MKSHDLKKALCQWTAMLALVVSGAVWAANGVDFSQSPEVSGTQEGAIRMPKEQDRMPLNYVNQPPMIPHSVEGYQVTTNTNRCLQCHGVESYRTTGAPRISPTHFMDSDGKVGAEVAPRRYFCLQCHVPQADTAPIVGNTFTPSKGYGK | soluble |
| MKTFIKGLVLSAVVASSQVYAEQTLNVYAWGGYLPEKSLKAFEQQEGVTINYSTFENNESMYTKLKLLKGTGYDVVFASAYFIEKMGREGLLAEIDHNQIPNMKDAMPTVLGLAHDPQNKFSLPYIWGITGLYYNSSTLPNGITKWADLWDKQYEQQVMLIDDIRDVFGMALKLNGFSINTKNEEEIKKAYESLVALKKNVLLYNSDAPHVPYVSGEATLGMQWNGNAYQGQVEMPELKFVMPEEGAVLWMDNFTIPSGSKNIPLAHKFINFMYQPENQAEIVQSLGYASATKGGRALLPAELRDNPTIFPSDEDMKKGEFINDVGPETLAIYEKYWQRLRNQ | not soluble |
| MKTFPVSIVTPDGPVYEKEVEMVSVKAESGEMGILPGHIPTVAPLKISAVRLKNGGHTDYVAVSGGFIEVRPDKVTVLSSSAEEANHIDIHRANEAKRRAEQRMQDKQAHVDFKRAEMALQRAVNRLNVSDMK | not soluble |
| MKTIDCRNMACPAPVVTTKRALEEAGGETVRVLVDAGAPRENVARFAANRGFRVAVEEADGGFAITIGSGEGAPSAPAENPARQGRTVMLITSDRLGDGPEDLGRLLMKSFIITLLDQESLPDRMMFLNSGVLLTTEGSEVLQALEQLGNRGVEVLSCGVCLDFFHCKEKLAAGTVTNMFTTAEALLTAGSVIRLLEHHHHHH | soluble |
| MKTIEIFDPAMCCPTGLCGTNINPELMRIAVVIETLKRQGVVVTRHNLRDEPQVYVSNKTVNQYLQKNGAEALPITLVDGEIAVSKDYPTTKQMSEWTGINLD | soluble |
| MKTIGLLGGMSWESTIPYYRLINEGVKARLGGLHSASLVLHSVDFHDIEACQSAGDWDRAGEILAEAAVGLQQAGAEGIVLCTNTMHKVADAIAARCQVPFLHIADATGRAIAAKGQRRVALLGTRYTMEQTFYRGRLQEQFAIETLIPEADDRAQINQIIFDELCLGTFSEASRDYYLQTIAALAEQGAEGVIFGCTEIGLLVPAELSPLPVFDTAAIHAEDAVNFMLSAGPTPAA | not soluble |
| MKTIHIRELADWLDGALQAARFKDYCPNGLQVEGKAEIAHIITGVTASEALLRAAIERGADAVLVHHGWFWRNEDRRVLGPRRTRLALALGHELNLLAYHLPLDAHPQWGNNAQLARVLGLQAETGPDGAPRTCGADNLVWLGSAPGVQTVAQLQQRVAERLGRTPLVVGEPDRPVRRVAWCTGGAQGMLADAVDAGADAYITGEASESTVHLARETGVAFVGAGHHATERYGVQALGEAVARQFGIRVEFIDIDNPVLEHHHHHH | not soluble |
| MKTITLYLDPASLPALNQLMDFTQNNEDKTHPRIFGLSRFKIPDNIITQYQNIHFVELKDNRPTEALFTILDQYPGNIELNIHLNIAHSVQLIRPILAYRFKHLDRVSIQQLNLYDDGSMEYVDLEKEENKDISAEIKQAEKQLSHYLLTGKIKFDNPTIARYVWQSAFPVKYHFLSTDYFEKAEFLQPLKEYLAENYQKMDWTAYQQLTPEQQAFYLTLVGFNDEVKQSLEVQQAKFIFTGTTTWEGNTEVREYYAQQQLNLLNHFTQAEGDLFIGDHYKIYFKGHPRGGEINDIILNNAKNITNIPANISFEVLMMTGLLPDKVGGVASSLYFSLPKEKISHIIFTSNKQVKSKEDALNNPYVKVMRRLGIIDESQVIFWDSLKELGGG | soluble |
| MKTLFAFFILIFSNIVYAAPKAELWAYWQASNDSNTASVSHQAWQSILDRNLVQVGENALFRYAEVTKEDKTLLNDYLDQLSKLDPREFNRQEQYAYWVNLYNALTVKLILDNYPVASITKLGGLFSFGPWDEKVFTVAGQTLTLNDIEHRILRPIWKDPRTHYAVNCASLGCPNLQSQAFTAQNTERLLSNAAHTFINSSKGATLNNDTLILSSIYDWFAVDFGNKKELLIHLAQYRPELSLYSGKIDYQYDWKLNDTKEKKLEHHHHHH | soluble |
| MKTLLQTTLKLLVASSLVLGMTASTLMAETKSKFQVAWTIYVGWMPWDYAAQSGILDKWAKKYGIEIEMVQVNDYVESINQYTAGKFDGCVMTNMDALTIPAAGGVNSTALIAGDFSNGNDGIILKGKKRLSEIKGQKVNLMELSVSHYLLARGLESVGLSERDVSVVNTSDADIVAAYSTKEVSALVTWNPQLSEVKSMKGANLVFDSSQIPGEIIDLMVLNTQTLKENPNLGKALTGAWFEVLALMKKGDLTALSAMAKASGTDLAGYKKQLESTKMFYEASEAVKFITSAELPETMKKVSEFSFEHGILGEGASSAAFVGMEFPGGKSFGDPKNLKLRFIDTYVKMAAEGKL | not soluble |
| MKTLPVLPGQAASSRPSPVEIWQILLSRLLDQHYGLTLNDTPFADERVIEQHIEAGISLCDAVNFLVEKYALVRTDQPGFSACTRSQLINSIDILRARRATGLMTRDNYRTVNNITLGKYPEAK | soluble |
| MKTLYDKLWSDHVVHAESDDPNGMVILYIDRHLVHEVTSPQAFESLKLAGRKPWRTGSILAVADHNVPTTDRSSGISDPVSRLQVETLDQNCEEFAITEFRMNDERQGIVHVIGPEQGATLPGMTVVCGDSHTSTHGAFACLAFGIGTSEVEHVLATQCLVARKSKTMLVRVEGDLPPGVTAKDIALAVIGEIGTAGGTGYAIEFAGSAIRSLSMEGRMTLCNMAIEAGARAGMVGADEVTIDYIKGRPFAPQGALWDQAVAYWRTLKSDEDAVFDRMVELKAVNIKPQVTWGTSPEMVTTVDGYVPDPADISDPTKRHDVEHALGYMGLKPKMPIQEITLDKVFIGSCTNSRIEDLRAAAEIVKGKRIAPNIRLAMVVPGSGLVKSMAEKEGLDKIFLSAGFEWREPGCSMCLAMNDDRLLPGERCASTSNRNFEGRQGPGGRTHLVSPAMAAAAAIAGHFVDVRSFIR | not soluble |
| MKTRITELLKIDYPIFQGGMAWVADGDLAGAVSKAGGLGIIGGGNAPKEVVKANIDKIKSLTDKPFGVNIMLLSPFVEDIVDLVIEEGVKVVTTGAGNPSKYMERFHEAGIIVIPVVPSVALAKRMEKIGADAVIAEGMEAGGHIGKLTTMTLVRQVATAISIPVIAAGGIADGEGAAAGFMLGAEAVQVGTRFVVAKESNAHPNYKEKILKARDIDTTISAQHFGHAVRAIKNQLTRDFELAEKDAFKQEDPDLEIFEQMGAGALAKAVVHGDVDGGSVMAGQIAGLVSKEETAEEILKDLYYGAAKKIQEEASRWTGVVRND | not soluble |
| MKTSANIATSASGNGLADVLERVLDKGVVIAGDISVSIASTELLNIKIRLLISSVERAKEIGINWWESDPYFSSQNNSLVQANEKLLERVASLESEIKALRSN | not soluble |
